Reference: patent US20200332015A1 (NAMAB THERAPEUTICS, published 2020)

T1: mouse Fc-tagged mouse CD137 (R&D Systems, cat. 937-4B-050) (mouse, UniProt P20334 24-187)
T1 construct: also called mouse CD137-Fc chimeric protein
T1 sequence (looked up): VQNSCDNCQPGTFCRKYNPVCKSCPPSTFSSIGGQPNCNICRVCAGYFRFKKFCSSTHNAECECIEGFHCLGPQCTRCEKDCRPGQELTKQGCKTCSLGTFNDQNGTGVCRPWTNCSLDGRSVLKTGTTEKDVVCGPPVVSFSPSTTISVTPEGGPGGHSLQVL


Legend:
[1] = target: T2, human CD137 expressed on Jurkat cells (human, UniProt Q07011 24-255); test: cell-based or functional assay
[2] = target: T2, human CD137 expressed on Jurkat cells; test: cell-based or functional assay; remark: listed apart in the source
[3] = target: T2, human CD137 expressed on Jurkat cells; test: cell-based or functional assay; remark: listed apart in the source
[4] = target: human PDL1-Fc chimeric protein (human, UniProt Q9NZQ7 19-238, limits assumed); test: SPR T200, antigen-Fc captured, molecule as analyte
Method: (§1) Affinity to PDL1 of the different species was determined by SPR measurements using a Biacore T200 device (GE Healthcare). An antibody specific for the Fc region of human IgGs was immobilized on a sensor chip (CM5 sensor chip, GE Healthcare) by amine-coupling. For all formats, with the exception of the Fc containing Morrison formats, PDL1-Fc chimeric protein from different species were captured by the immobilized antibody. Three-fold serial dilutions of the molecules specific for PDL1 (0.12-90 nM) were injected into the flow cells for three minutes and dissociation was monitored for 10 minutes. After each injection cycle, surfaces were regenerated with one injection of a 3 M MgCl₂ solution. The apparent dissociation (kd) and association (kₐ) rate constants and the apparent dissociation equilibrium constant (KD) were calculated using one-to-one Langmuir binding model. Affinity to CD137 of the different species was determined using the identical setup as for PDL1 with the exception that CD137-Fc chimeric proteins from different species were captured by the immobilized antibody.

[5] = target: T3, cynomolgus monkey Fc-tagged CD137 (R&D Systems, cat. 9324-4B-100) (cynomolgus monkey, UniProt A9YYE7 24-186); test: SPR T200, antigen-Fc captured, molecule as analyte
T3 construct: also called cynomolgus CD137-Fc chimeric protein
Method: as §1

[6] = target: T1, mouse Fc-tagged mouse CD137 (R&D …); test: SPR T200, antigen-Fc captured, molecule as analyte
Method: as §1

[7] = target: T4, Fc tagged human CD137 (R&D Systems, cat. 838-4B-100) (human, UniProt Q07011 24-186); test: SPR T200, antigen-Fc captured, molecule as analyte
T4 construct: also called CD137 Fc chimera; human CD137-Fc chimeric protein
Method: as §1

[8] = target: T2, human CD137 expressed on Jurkat cells; test: cell-based or functional assay; remark: listed apart in the source
[9] = target: T4, Fc tagged human CD137 (R&D Systems, …); test: SPR T200, Fc-tagged antigen captured, scFv analyte
Method: (§2) Affinity of the humanized scFvs to human CD137 was determined by SPR analysis on a T200 device (Biacore, GE Healthcare). […] After each analyte injection cycle, the anti-human Fc-specific IgG was regenerated and new antigen was captured. The scFvs were injected as analyte using a dose response multi-cycle kinetic assay over the captured CD137 with concentrations of the analyte ranging from 0.19 to 45 nM (three-fold dilutions steps) diluted in running buffer. Association and dissociation time were set to 300 s and 720 s, respectively. Obtained sensorgrams were fitted using the 1:1 binding model.

[10] = target: T3, cynomolgus monkey Fc-tagged CD137 (R&D …); test: SPR T200, Fc-tagged antigen captured, scFv analyte
Method: as §2
Cross-reactivity to cynomolgus CD137 was measured with cynomolgus monkey Fc-tagged CD137 (R&D Systems, cat. 9324-4B-100) in a similar assay as used to measure binding to human CD137.

human serum albumin = target: T5, human serum albumin (human, UniProt P02768 25-609); test: SPR T200, SA coupled to chip, pH 5.5
T5 construct: also called human SA; HSA
Method: (§3) Affinity of molecules to serum albumin (SA) of the different species was determined by SPR measurements using a Biacore T200 device (GE Healthcare). SA was directly coupled to a CM5 sensor chip (GE Healthcare) using amine coupling chemistry. […] The assay was run in a 1×PBS-Tween buffer at pH 5.5.

mouse serum albumin = target: T6, mouse serum albumin (mouse, UniProt P07724 25-608); test: SPR T200, SA coupled to chip, pH 5.5
T6 construct: also called mouse SA; MSA
Method: as §3

T3 sequence (A9YYE7 entry or part of it): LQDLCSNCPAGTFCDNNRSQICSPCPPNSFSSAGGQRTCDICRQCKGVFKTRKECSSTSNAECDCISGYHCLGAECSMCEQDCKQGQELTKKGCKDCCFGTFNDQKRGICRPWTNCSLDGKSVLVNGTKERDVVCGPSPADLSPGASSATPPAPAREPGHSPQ

EC50 NFkB-luciferase, CHO-PDL1 cells [1] | Top of curve fit, NFkB-luciferase, CHO-PDL1 cells [1] | EC50 NFkB-luciferase, HCC827 with IFNy [2] | Top of curve fit, NFkB-luciferase, HCC827 with IFNy [2] | EC50 NFkB-luciferase, HCC827 without IFNy [3] | Top of curve fit, NFkB-luciferase, HCC827 without IFNy [3] | Kd [4] | koff [4] | kon [4] | Kd [7] | koff [7] | kon [7] | max. activation, HCC827 +IFNg [8] | max. activation, HCC827 -IFNg [8] | max. activation, NF-kB reporter gene, CHO-PD-L1 [8] | rel. IC50 (urelumab/test), HCC827 +IFNg [8] | rel. IC50 (urelumab/test), HCC827 -IFNg [8] | rel. IC50 (urelumab/test), NF-kB reporter gene, CHO-PD-L1 [8] | Kd [9] | koff [9] | Binder | other results
6 ng/mL | 242 | 5.48 ng/mL | 208 | 6.97 ng/mL | 135 | ≤ 0.0035 nM | < 1e-05 s⁻¹ | 2.8e+06 M⁻¹ s⁻¹ | 3.5 nM | 0.00075 s⁻¹ | 210000 M⁻¹ s⁻¹ | 208% | 135% | 242% | 19.7 ratio | 16 ratio | 14.4 ratio |  |  | PRO1126 (38-02-A04 sc01 scDb-i/33_03_G02 sc03 Full scDb-o) (bispecific antibody, scDb; also called PR01126) DFQLTQSPSSLSASVGDRVTITCQASQSINDYLAWYQQKPGKSPKLLIYKASTLASGVPSRFSGSGSGTDFTLTISSLQPEDFATYYCQQGYIITDIDNVFGTGTKVTVLGGGGGSQVQLQESGPGLVKPSETLSLTCKVSGFSFSNSYWICWIRQPPGKGLEWIGCTFVGSSDSTYYANWAKGRVTISVDSSKNQFSLKLSSVTAADTAVYYCARHPSDAVYGYANNLWGQGTLVTVSSGGGGSGGGGSGGGGSGGGGSIQMTQSPSSLSASVGDRVTITCQASQSINNVLAWYQQKPGKAPKLLIYRASTLASGVPSRFSGSGSGTDFTLTISSLQPEDFATYYCQSSYGNYGDFGTGTKVTVLGGGGGSQSQLQESGPGLVKPSETLSLTCKASGFSFSSGYDMCWVRQPPGKGLEWIACVVAGSVDITYYASWAKGRVTISKDSSKNQVSLKLSSVTAADTAVYFCARKDAYSDAFNLWGQGTLVTVSS | binding result [6]: no binding (tested: 0.12-90 nM)
 |  |  |  |  |  |  |  |  |  |  |  |  |  |  |  |  |  | 0.0179 nM | 2.58e-05 s⁻¹ | PRO1182 (38-02-A04-sc06, FULL graft, VH4, scFv) (scFv, VL-linker-VH) scFv: DLQMTQSPSSLSASVGDRVTITCQASQSINNVLAWYQQKPGKPPKLLIYRASTLASGVPSRFSGSGSGTDFTLTISSLQPEDFATYYCQSSYGNYGDFGTGTKVTVLGGGGGSGGGGSGGGGSGGGGSQVQLQESGPGLVKPSETLSLTCKASGFSFSNSYWICWVRQPPGKGLEWIGCTFVGSSDSTYYANWAKGRVTISKDSSKNQVSLKLSSVTAADTAVYFCARHPSDAVYGYANNLWGQGTLVTVSS | kon [9]: 1.44e+06 M⁻¹ s⁻¹; Kd [10]: 0.0142 nM; koff [10]: 1.83e-05 s⁻¹; kon [10]: 1.29e+06 M⁻¹ s⁻¹

Further lines, the binder ahead of its results:

Binder | EC50 NFkB-luciferase, CHO-PDL1 cells [1] | Top of curve fit, NFkB-luciferase, CHO-PDL1 cells [1] | EC50 NFkB-luciferase, HCC827 with IFNy [2] | Top of curve fit, NFkB-luciferase, HCC827 with IFNy [2] | EC50 NFkB-luciferase, HCC827 without IFNy [3] | Top of curve fit, NFkB-luciferase, HCC827 without IFNy [3] | Kd [4] | koff [4] | kon [4] | Kd [7] | koff [7] | kon [7] | max. activation, HCC827 +IFNg [8] | max. activation, HCC827 -IFNg [8] | max. activation, NF-kB reporter gene, CHO-PD-L1 [8] | rel. IC50 (urelumab/test), HCC827 +IFNg [8] | rel. IC50 (urelumab/test), HCC827 -IFNg [8] | rel. IC50 (urelumab/test), NF-kB reporter gene, CHO-PD-L1 [8] | Kd [9] | koff [9] | other results
PRO1123 (38-02-A04 sc05 IF scDb-i/33_03_G02 sc01 scDb-o) (bispecific antibody, scDb; also called PR01123) DIQMTQSPSSLSASVGDRVTITCQASQSINDYLAWYQQKPGKAPKLLIYKASTLASGVPSRFSGSGSGTDFTLTISSLQPEDFATYYCQQGYIITDIDNVFGTGTKVTVLGGGGGSQVQLQESGPGLVKPSETLSLTCKVSGFSFSNSYWICWVRQPPGKGLEWIGCTFVGSSDSTYYANWAKGRVTISVDSSKNQVSLKLSSVTAADTAVYFCARHPSDAVYGYANNLWGQGTLVTVSSGGGGSGGGGSGGGGSGGGGSIQMTQSPSSLSASVGDRVTITCQASQSINNVLAWYQQKPGKPPKLLIYRASTLASGVPSRFSGSGSGTDFTLTISSLQPEDFATYYCQSSYGNYGDFGTGTKVTVLGGGGGSQVQLQESGPGLVKPSETLSLTCKVSGFSFSSGYDMCWIRQPPGKGLEWIGCVVAGSVDITYYASWAKGRVTISVDSSKNQFSLKLSSVTAADTAVYYCARKDAYSDAFNLWGQGTLVTVSS | 5.75 ng/mL | 219 | 11.9 ng/mL | 154 | 16.1 ng/mL | 123 | 0.075 nM | 0.00017 s⁻¹ | 2.3e+06 M⁻¹ s⁻¹ | 0.88 nM | 0.00027 s⁻¹ | 310000 M⁻¹ s⁻¹ | 154% | 123% | 219% | 12.2 ratio | 6.82 ratio | 18.1 ratio |  |  | Kd [5]: 1.3 nM; koff [5]: 0.00033 s⁻¹; kon [5]: 260000 M⁻¹ s⁻¹; Kd [6]: 410 nM; koff [6]: 0.027 s⁻¹; kon [6]: 65000 M⁻¹ s⁻¹
PRO1181 (38-02-A04-sc05, IF graft, VH4, scFv) (scFv, VL-linker-VH) scFv: DIQMTQSPSSLSASVGDRVTITCQASQSINNVLAWYQQKPGKPPKLLIYRASTLASGVPSRFSGSGSGTDFTLTISSLQPEDFATYYCQSSYGNYGDFGTGTKVTVLGGGGGSGGGGSGGGGSGGGGSQVQLQESGPGLVKPSETLSLTCKVSGFSFSNSYWICWVRQPPGKGLEWIGCTFVGSSDSTYYANWAKGRVTISVDSSKNQVSLKLSSVTAADTAVYFCARHPSDAVYGYANNLWGQGTLVTVSS |  |  |  |  |  |  |  |  |  |  |  |  |  |  |  |  |  |  | 1.37 nM | 0.00048 s⁻¹ | kon [9]: 350000 M⁻¹ s⁻¹; Kd [10]: 1.36 nM; koff [10]: 0.00053 s⁻¹; kon [10]: 388000 M⁻¹ s⁻¹
PRO963 (38_02_A04 sc01 scDb-i/33-03-G02 sc01 scDb-o/19-01-H04-sc03 scFv) (other, Trispecific scDb-scFv (PDL1 x CD137 x SA); also called PRO096 (= PRO1051)) DIQMTQSPSSLSASVGDRVTITCQASQSINDYLAWYQQKPGKAPKLLIYKASTLASGVPSRFSGSGSGTDFTLTISSLQPEDFATYYCQQGYIITDIDNVFGTGTKVTVLGGGGGSQVQLQESGPGLVKPSETLSLTCKVSGFSFSNSYWICWIRQPPGKGLEWIGCTFVGSSDSTYYANWAKGRVTISVDSSKNQFSLKLSSVTAADTAVYYCARHPSDAVYGYANNLWGQGTLVTVSSGGGGSGGGGSGGGGSGGGGSIQMTQSPSSLSASVGDRVTITCQASQSINNVLAWYQQKPGKAPKLLIYRASTLASGVPSRFSGSGSGTDFTLTISSLQPEDFATYYCQSSYGNYGDFGTGTKVTVLGGGGGSQVQLQESGPGLVKPSETLSLTCKVSGFSFSSGYDMCWIRQPPGKGLEWIGCVVAGSVDITYYASWAKGRVTISVDSSKNQFSLKLSSVTAADTAVYYCARKDAYSDAFNLWGQGTLVTVSSGGGGSGGGGSIQMTQSPSSLSASVGDRVTITCQSSESVYSNNQLSWYQQKPGQPPKLLIYDASDLASGVPSRFSGSGSGTDFTLTISSLQPEDFATYYCAGGFSSSSDTAFGGGTKLTVLGGGGGSGGGGSGGGGSGGGGSEVQLVESGGGLVQPGGSLRLSCAASGFSLSSNAMGWVRQAPGKGLEYIGIISVGGFTYYASWAKGRFTISRDNSKNTVYLQMNSLRAEDTATYFCARDRHGGDSSGAFYLWGQGTLVTVSS |  |  |  |  |  |  | 0.066 nM | 0.00013 s⁻¹ | 2e+06 M⁻¹ s⁻¹ | 3 nM | 0.00062 s⁻¹ | 200000 M⁻¹ s⁻¹ |  |  |  |  |  |  |  |  | Kd (human serum albumin): 2.8 nM; koff (human serum albumin): 0.0003 s⁻¹; kon (human serum albumin): 110000 M⁻¹ s⁻¹; binding result (mouse serum albumin): no binding
